Measurements published in article PMC6474364, “The Carbon Switch at the Level of Pyruvate and Phosphoenolpyruvate in Sulfolobus solfataricus P2” (Frontiers in Microbiology, 2019).
Each block holds one molecule with its values, some of them ahead of it.

Columns and labels:
PEPS (SSO0883) = biological target: T1, PEPS (SSO0883) (Saccharolobus solfataricus, UniProt Q97ZL2); experiment: discontinuous assay, PEP detected with PK/LDH, NADH […] nm; assay type: biochemical; details: read-out: % residual activity at 1 mM
T1 construct: gene ppsA-1; full-length, codon-optimised synthetic gene in pET11c, E. coli Rosetta (DE3) pRIL; partially purified by heat precipitation; no tag mentioned
T1 sequence (Q97ZL2 1-799): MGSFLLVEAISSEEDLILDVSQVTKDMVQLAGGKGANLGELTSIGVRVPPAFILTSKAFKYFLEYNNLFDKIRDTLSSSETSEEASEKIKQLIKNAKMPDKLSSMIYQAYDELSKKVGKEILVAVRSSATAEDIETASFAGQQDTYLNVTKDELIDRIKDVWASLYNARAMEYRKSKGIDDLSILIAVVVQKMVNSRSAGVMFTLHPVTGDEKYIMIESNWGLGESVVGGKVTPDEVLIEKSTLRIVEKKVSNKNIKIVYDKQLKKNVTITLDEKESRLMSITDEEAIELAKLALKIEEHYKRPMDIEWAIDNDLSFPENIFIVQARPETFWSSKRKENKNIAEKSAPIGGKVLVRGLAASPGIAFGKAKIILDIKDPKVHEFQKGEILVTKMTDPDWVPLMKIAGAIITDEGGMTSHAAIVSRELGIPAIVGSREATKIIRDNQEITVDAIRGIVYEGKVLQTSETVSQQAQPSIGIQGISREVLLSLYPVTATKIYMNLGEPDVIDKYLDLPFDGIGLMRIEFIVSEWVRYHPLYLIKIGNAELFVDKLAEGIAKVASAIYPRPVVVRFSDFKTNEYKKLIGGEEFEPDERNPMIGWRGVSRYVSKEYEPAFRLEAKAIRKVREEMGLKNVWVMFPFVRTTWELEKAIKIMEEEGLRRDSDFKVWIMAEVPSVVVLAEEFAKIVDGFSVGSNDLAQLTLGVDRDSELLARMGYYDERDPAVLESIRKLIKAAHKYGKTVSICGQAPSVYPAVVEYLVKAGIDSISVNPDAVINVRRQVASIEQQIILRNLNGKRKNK

PK (SSO0981) = biological target: T2, PK (SSO0981) (Saccharolobus solfataricus, UniProt Q97ZD7); experiment: continuous LDH-coupled assay, NADH […] nm; assay type: biochemical; details: non-competitive, allosteric; printed Ki equals the approximate concentration for 50% inhibition; half-saturating 0.03 mM PEP, 2 mM ADP, 10 mM MgCl2, 60°C (b61 says 70°C)
T2 construct: gene pyK; full-length ORF in pET324, E. coli Rosetta (DE3) pRIL; heat precipitation, ion exchange, gel filtration; no tag mentioned
T2 sequence (Q97ZD7 1-452): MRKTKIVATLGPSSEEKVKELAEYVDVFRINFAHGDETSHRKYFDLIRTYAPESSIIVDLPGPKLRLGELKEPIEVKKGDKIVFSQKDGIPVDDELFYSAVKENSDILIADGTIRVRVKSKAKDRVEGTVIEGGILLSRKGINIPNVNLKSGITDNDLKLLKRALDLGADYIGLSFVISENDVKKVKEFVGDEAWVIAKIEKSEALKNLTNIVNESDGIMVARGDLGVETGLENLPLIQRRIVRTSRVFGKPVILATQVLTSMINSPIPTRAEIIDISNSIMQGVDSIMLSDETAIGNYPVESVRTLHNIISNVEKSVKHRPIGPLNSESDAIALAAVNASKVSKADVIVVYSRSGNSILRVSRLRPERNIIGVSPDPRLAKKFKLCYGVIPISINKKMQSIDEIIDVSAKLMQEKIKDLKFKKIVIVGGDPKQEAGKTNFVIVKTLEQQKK

purified protein [1] = substrate: C=C(OP(=O)(O)O)C(=O)O; experiment: purified protein; assay type: biochemical, Saccharolobus solfataricus; details: 70°C, pH 6.5, 0.1 M HEPES, 10 mM MgCl2, co-substrate ADP
purified protein [2] = substrate: Nc1ncnc2c1ncn2[C@@H]1O[C@H](COP(=O)(O)OP(=O)(O)O)[C@@H](O)[C@H]1O; experiment: purified protein; assay type: biochemical, Saccharolobus solfataricus; details: 70°C, pH 6.5, 0.1 M HEPES, 10 mM MgCl2, co-substrate PEP
purified protein [3] = substrate: CC(=O)C(=O)O; experiment: purified protein; assay type: biochemical, Saccharolobus solfataricus; details: 70°C, pH 7.0, 100 mM Tris/HCl, 10 mM MgCl2, co-substrate ATP, anabolic direction
purified protein [4] = substrate: Nc1ncnc2c1ncn2[C@@H]1O[C@H](COP(=O)(O)OP(=O)(O)OP(=O)(O)O)[C@@H](O)[C@H]1O; experiment: purified protein; assay type: biochemical, Saccharolobus solfataricus; details: 70°C, pH 7.0, 100 mM Tris/HCl, 10 mM MgCl2, co-substrate pyruvate, anabolic direction

- remaining activity at 1000 µM (PEPS (SSO0883)): ~80%
Molecule: Nc1ncnc2c1ncn2[C@@H]1O[C@H](COP(=O)(O)O)[C@@H](O)[C@H]1O [AMP]

- IC50 (PK (SSO0981)): 800 µM
Molecule: Nc1ncnc2c1ncn2[C@@H]1O[C@H](COP(=O)(O)OP(=O)(O)OP(=O)(O)O)[C@@H](O)[C@H]1O [ATP]

- remaining activity at 1000 µM (PEPS (SSO0883)): ~80%
Molecule: O=C(O)CCC(=O)C(=O)O [α-ketoglutarate]

The next lines start with the molecule.

B1: PK (SSO0981) (Saccharolobus solfataricus P2) (protein)
chain: T2 sequence (Q97ZD7 1-452)
notes: full-length ORF in pET324, E. coli Rosetta (DE3) pRIL; heat precipitation, ion exchange, gel filtration; no tag mentioned
- Km (purified protein [1]): 90 µM
- Vmax (purified protein [1]): 70.4 µmol/min/mg
- kcat (purified protein [1]): 58.4 s⁻¹
- kcat/Km (purified protein [1]): 628000 M⁻¹ s⁻¹
- Km (purified protein [2]): 70 µM
- Vmax (purified protein [2]): 70.8 µmol/min/mg
- kcat (purified protein [2]): 58.8 s⁻¹
- kcat/Km (purified protein [2]): 852000 M⁻¹ s⁻¹

B2: PEPS (SSO0883) (Saccharolobus solfataricus P2) (protein)
chain: T1 sequence (Q97ZL2 1-799)
notes: full-length, codon-optimised synthetic gene in pET11c, E. coli Rosetta (DE3) pRIL; partially purified by heat precipitation; no tag mentioned
- Km (purified protein [3]): 460 µM
- Vmax (purified protein [3]): 0.32 µmol/min/mg
- kcat (purified protein [3]): 0.48 s⁻¹
- kcat/Km (purified protein [3]): 1040 M⁻¹ s⁻¹
- Km (purified protein [4]): 610 µM
- Vmax (purified protein [4]): 0.22 µmol/min/mg
- kcat (purified protein [4]): 0.33 s⁻¹
- kcat/Km (purified protein [4]): 530 M⁻¹ s⁻¹
